Results published in the supplement of paper PMC9170038.

Key:
MS2 coat protein [1] = experiment: apparent KD of MS2 coat protein; higher = weaker reporter binding; details: Eterna round: R101
Description: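 RNA-MaP: designed FMN/MS2 RNA switches (84 nt design region) are transcribed on-chip within common flanks and titrated with SNAP-549-labelled MS2 coat protein (about 1-3000 nM) in 100 mM Tris pH 7.5, 80 mM KCl, 4 mM MgCl2, without or with 200 uM FMN. Median apparent KD per design; activation ratio = KD,OFF / KD,ON.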

MS2 coat protein [2] = experiment: apparent KD of MS2 coat protein, switch ON state; designed switch direction (-1 OFF switch, 1 ON switch): 1; higher = weaker reporter binding; details: FMN input: 0 or 200 uM; Eterna round: R93 (includes R88 designs)
Summary of the method: (§1)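 For every design, apparent KD is the median of normalised binding-curve fits from its clusters. The RNA switches were transcribed on-chip from Illumina sequencing clusters and titrated with SNAP-549-labelled MS2 coat protein (twofold steps, 0.7 or 1.5 nM to 3 µM; 0.8–1.5 h to 10–20 min per step). Titrations used 100 mM Tris-HCl pH 7.5, 80 mM KCl, 4 mM MgCl2, without or with constant ligand.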

MS2 coat protein [3] = experiment: apparent KD of MS2 coat protein, switch OFF state (with FMN for OFF switches, without FMN for ON switches); designed switch direction (-1 OFF switch, 1 ON switch): 1; higher = weaker reporter binding; details: FMN input: 0 or 200 uM; Eterna round: R93 (includes R88 designs)
Summary of the method: as §1

| Sequence | apparent KD of MS2 coat protein (MS2 coat protein [1]; input ligand: FMN 200 uM) [nM] | apparent KD of MS2 coat protein (MS2 coat protein [1]; input ligand: none) [nM] | apparent KD of MS2 coat protein (MS2 coat protein [2]) [nM] | apparent KD of MS2 coat protein (MS2 coat protein [3]) [nM] |
| --- | --- | --- | --- | --- |
| AAAGAUUUUUAAGGAUAUCAGUGGCAAAGCCACUGAGAAGGUGAGGAUCACCCACCUACGUGACGCUGGAAACAGCGUCACGAA [#SharedSequence ExNG1 - 25] (puzzle (switch architecture): Exclusion NG 1) | 12.7 | 13 |  |  |
| AAAGAUUUUUAAGGAUAUGACUCCGAAACGGAGUCAGAAGGUGAGGAUCACCCAUCUAGCUCAGGGUCGAAAGACCCUGAGCAA [#SharedSequence - ExNG1-15] (puzzle (switch architecture): Exclusion NG 1) | 78.3 | 43.6 |  |  |
| AAAUAAUCCUCAGGAUAUGACUCCGAAACGGAGUCAGAAGGGAGGAUCACCCUCUUCAGCUCAGCGUCGAAAGACGCUGAGCAA [#SharedSequence ExNG1 - 23] (puzzle (switch architecture): Exclusion NG 1) | 11.9 | 863 |  |  |
| AAAUGAUAUCAGAAGGCGUGGACGAAACGUCCACGAGGAUAUGAGGAUCACCCAUAUCAGGUCAGCCUGCAAAGCAGGCUGACC [#SharedSequence - IExNG1: 7-2] (puzzle (switch architecture): Inverted Exclusion NG 1) | 126 | 15.6 |  |  |
| AAGUACAAGCAGAAGGCACAUGAGGAUCACCCAUGUCGGGCGUCCUGUAAGUGAGGAUAUGCUAAGUGACGGCCGCCUUGGCGG [Adienare] (puzzle (switch architecture): Inverted Small Loop Exclusion NG 1) | 22.6 | 383 |  |  |
| AAUAAAAUUCUAGGAUAUGACUCCGAAACGGAGUCAGAAGGAGGAUCACCCUUUCAAAGCUCAGCGUCGAAAGACGCUGAGCAA [#SharedSequence - ExNG1-19] (puzzle (switch architecture): Exclusion NG 1) | 1160 | 155 |  |  |
| AAUAAUCUUUAAGGAUAUGACUCCGAAACGGAGUCAGAAGGUGAGGAUCACCCACCUAGCUCAGGGUCGAAAGACCCUGAGCAA [#SharedSequence - ExNG1-9] (puzzle (switch architecture): Exclusion NG 1) | 10.6 | 9.5 |  |  |
| GGUACAUCUAGUUAGGAUAUCAGAUGUAAGACAUGAGGAUCACCCAUGUCCUAAGAAUAGGUAACUGAGAAGGAACAGGGAGUCC [JR_SS002_Sub417] |  |  | 36.5 | 29.8 |
| GGUACGGCUAGUCAGGAUAUCAGGCGUAAGACAUGAGGAUCACCCAUGUCCUAAGAACAGGUAACUGAGAAGGGACAGGGCGUCC [JR_SS002_Sub414] |  |  | 28.8 | 63.1 |
| GGUACUACAGAUCAGGAUAUGUUUGGGUAAACAUGAGGAUCACCCAUGUGUGCCCGAUACACAGCACAGAAGGGAUAACGUGGGA [Ditia] |  |  | 16.2 | 21.4 |
| GUAGACAUAGUUCAGGAUAUAGGAAUAGUCACAUGAGGAUCACCCAUGUGCAUUUAUAUGCGCACUUAGAAGGGAGGUAGUUAAC [Mat - Same state - Malcolm Mod - D121] |  |  | 26.3 | 25 |
| GUAUAUAUGAGGUAGGAUAUCCAAAAUAAAACAUGAGGAUCACCCAUGUAAAUAAAUAAUAAAUGGGAGAAGGACCACAUAUAUAC [Ex6 sub 3] |  |  | 16.2 | 34.2 |
| GUGAGACAUGAGGAUCACCCAUGUACGCGUCAGCAAGGAUAUGGGAAUAAAAGACAGAGACCAGAAGGUGCUGUUG [Arzaerri] |  |  | 22.9 | 67.5 |
| GUGGACAUAGUUCAGGAUAUAUGAAUAGUCACAUGAGGAUCACCCAUGUCCAUUUAUAUGGGCACAUAGAAGGGAGGUAGUUAAC [Mat - Same state - Malcolm Mod - D124] |  |  | 451 | 744 |
| UAAAAACAUGAGGAUCACCCAUGUGAGAACAUGGGAGGAUAUACAAAGACGAAAGUCGAAGUAGAAGGCCUAAAAU [Mat - Same State 1 - Mod - D173] |  |  | 178 | 25.7 |
| UAAAAACAUGAGGAUCACCCAUGUGAGAACAUGGGAGGAUAUACAAGGACGAAAGUCAAGGUAGAAGGCCUAAAAU [Mat - Same State 1 - Mod - D175] |  |  | 160 | 29.3 |
| UAAAAACAUGAGGAUCACCCAUGUGAGAACAUGGGAGGAUAUACGAGGACGAAAGUCAAAGUAGAAGGCCUAAAAG [Garnet 84] |  |  | 272 | 101 |
| UAAUAAUAAACCAAGGAUAUGGAGUUUCCAACAUGAGGAUCACCCAUGUUUUGCUUGUAAUCGAUCCAGAAGGUGGAGCCAAAUA [JR_SS002_Sub1006] |  |  | 35.6 | 68.4 |
| UACAGACAUGAGGAUCACCCAUGUAGAAUUAUGGGAGGAUAUACAAAGACGAGAGUCAGAGUAGAAGGCCUAGGAC [salish99-ss1-166] |  |  | 27.3 | 62.7 |
| UAUAGACAUGAGGAUCACCCAUGUAGAAUUAUGGGAGGAUAUACAAAGACGAGAGUCAGAGUAGAAGGCCUAGGAC [salish99-ss1-155] |  |  | 22.6 | 49.6 |
| UAUCCGGCAGUGUAGGAUAUGUUGUAGUAAACAUGAGGAUCACCCAUGUGGAUUAUAUAAGAUUCACAGAAGGGCACUGCAUUGC [Laonis] |  |  | 265 | 226 |
| UCGUCCUCGUGCUAGGAUAUCCAUCGUAAAACAUGAGGAUCACCCAUGUAGAAAUGCGCCGACGAGGAGAAGGAGCGAUGUGGAU [Lazabima] |  |  | 14.5 | 18.5 |
| UGAAGACAUGAGGAUCACCCAUGUGGGAAUAUGGGAGGAUAUACAAAGACGAGAGUCAGAGUAGAAGGCCUAGGAU [salish99-ss1-96] |  |  | 36.7 | 154 |
| UGGAGACAUGAGGAUCACCCAUGUGAGAAGAGGCGAGGAUAUCGAAAGAAAGAAGAGAAACGAGAAGGCGCGAGAA [salish99-SS1-033] |  |  | 13 | 36.7 |
| UGGAGACAUGAGGAUCACCCAUGUGAGAAGAGGCGAGGAUAUCGAAAGAAAGAAGAGAAACGAGAAGGCGCGAGAG [salish99-SS1-041] |  |  | 42.7 | 51.2 |
| UGGAGACAUGAGGAUCACCCAUGUGAGAAGAGGCGAGGAUAUCGAAAGAAAGAAGAGAAACGAGAAGGCGCGAGUC [salish99-SS1-046] |  |  | 28.3 | 41 |
| UGUAGGAAGAGAGAGGAUAUCCAAAGGAAAACAUGAGGAUCACCCAUGUAAAAGGUAGGAAAUUGGGAGAAGGCUCAAGAGAGAG [salish99-ss2-082] |  |  | 29 | 52.7 |
| UUAAAACAUGAGGAUCACCCAUGUAGAAAUAUGGGAGGAUAUACGAAGACGAAAGUCAAAGUAGAAGGCCUAAAUU [Mat - Same State 1 - Eli mod - D112] |  |  | 25.2 | 64.9 |
| UUACGUACGUAUGAGGAUAUCCAUAAUAAGACAUGAGGAUCACCCAUGUAAACAAAACAAUAAUGGGAGAAGGCAUACGUACGAA [Mat - Same state - Malcolm Mod - D135] |  |  | 23.2 | 47.3 |
